Results taken from paper PMC3438196.

Biological target: Apobec3G S137A MAPPIT bait (human) (UniProt Q9HC16)
Test: two-hybrid; MAPPIT (mammalian two-hybrid) in intact HEK293T cells: bait on the EpoR/leptin receptor chimera, prey on gp130 fragments, pXP2d2-rPAP1-luciferase reporter; fold induction of luciferase, Epo-stimulated (10 ng/ml hEpo) over unstimulated; 6-well or 96-well calcium phosphate transfection

Apobec3G S137A MAPPIT bait (human), sequence (Q9HC16 whole entry S137A, the tested form may be a part): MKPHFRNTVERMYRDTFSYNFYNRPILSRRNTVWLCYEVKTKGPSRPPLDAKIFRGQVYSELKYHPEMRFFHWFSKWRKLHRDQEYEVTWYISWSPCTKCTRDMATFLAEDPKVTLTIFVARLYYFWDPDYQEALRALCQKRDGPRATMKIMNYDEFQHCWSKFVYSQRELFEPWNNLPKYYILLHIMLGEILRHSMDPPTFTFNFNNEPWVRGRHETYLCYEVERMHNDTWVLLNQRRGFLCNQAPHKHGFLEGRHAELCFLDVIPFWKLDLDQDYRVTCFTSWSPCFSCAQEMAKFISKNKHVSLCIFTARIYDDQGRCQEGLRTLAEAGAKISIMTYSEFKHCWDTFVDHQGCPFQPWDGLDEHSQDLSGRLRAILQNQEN

Question: “Gagpol MAPPIT prey (pMG2-Gagpol) (natural protein)” was tested. Which MAPPIT signal, % of WT did it give?
Answer: 127 % of WT
